Tests used:
[1] = target: Notch1 chimeric antigen, Lin-A domain swapped with murine sequence (human; human with mouse Lin-A) (UniProt P46531); test: ELISA, relative to huN1-NRRHD
[2] = target: huN1-NRRHD Mutant 1465S/N (human) (UniProt P46531); test: ELISA, relative to huN1-NRRHD
[3] = target: huN1-NRRHD Mutant 1457E/A (human) (UniProt P46531); test: ELISA, relative to huN1-NRRHD
[4] = target: huN1-NRRHD Mutant 1466L/A (human) (UniProt P46531); test: ELISA, relative to huN1-NRRHD
[5] = target: huN1-NRRHD Mutant 1462K/A (human) (UniProt P46531); test: ELISA, relative to huN1-NRRHD
[6] = target: huN1-NRRHD Mutant 1463V/A (human) (UniProt P46531); test: ELISA, relative to huN1-NRRHD
[7] = target: huN1-NRRHD Mutant 1467Q/A (human) (UniProt P46531); test: ELISA, relative to huN1-NRRHD
[8] = target: Notch1 chimeric antigen, Lin-A domain swapped with murine sequence (human; human with mouse Lin-A) (UniProt P46531); test: ELISA on coated conditioned medium
[9] = target: huN1-NRRHD chimeric antigen, HD-C Subdomain swap 3 (to Notch2 sequence) (human; human with Notch2 residues) (UniProt P46531); test: ELISA on coated conditioned medium
[10] = target: huN1-NRRHD chimeric antigen, HD-C Subdomain swap 5 (to Notch2 sequence) (human; human with Notch2 residues) (UniProt P46531); test: ELISA on coated conditioned medium
[11] = target: huN1-NRRHD chimeric antigen, HD-C Subdomain swap 4 (to Notch2 sequence) (human; human with Notch2 residues) (UniProt P46531); test: ELISA on coated conditioned medium
[12] = target: huN1-NRRHD chimeric antigen, HD-C Subdomain swap 2 (to Notch2 sequence) (human; human with Notch2 residues) (UniProt P46531); test: ELISA on coated conditioned medium
[13] = target: huN1-NRRHD chimeric antigen, HD-C Subdomain swap 1 (to Notch2 sequence) (human; human with Notch2 residues) (UniProt P46531); test: ELISA on coated conditioned medium

B1: mouse monoclonal antibody N248A (antibody, IgG1, V domains shown)
VH: QVQLQQSGAELMKPGASVKISCKATGYTFSNYWMEWVKQRPGHGLEWIGEILPGRGRTNYNENFKGKATFTADTSSNTVYMQLNSLTSEDSAVYYCARFHSSAYYYTMDYWGQRTSVTVSS
VL: QAVVTQESALTTSPGETVTLTCRSSTGAVTTSNYANWVQEKPDHLFTGLIGGTNNRAPGIPARFSGSLIGDKAALTITGAQTEDEAIYFCALWYSNHWVFGGGTKLTVL
B1 gave a Binding activity [1] of 11%, a Binding activity [2] of 8% and a Binding activity [3] of 112%. For the same binder, the Binding activity [4] was 1%, the Binding activity [5] was 85% and the Binding activity [6] was 6%. It also gave a Binding activity [7] of 4%, an ELISA reading [8] of 0.33 and an ELISA reading (Binding activity) [9] of 2.81. For the same binder, the ELISA reading (Binding activity) [10] was 1.48, the ELISA reading (Binding activity) [11] was 2.89 and the ELISA reading (Binding activity) [12] was 2.76. The ELISA reading (Binding activity) [13] was 0.48.
